Laboratory results from the DeepSol protein solubility set.

Assay: soluble on expression in E. coli; label from the status in PepcDB or PDB records

Row | Sequence | soluble on expression in E. coli
1 | MAAQRLGKRVLSKLQSPSRARGPGGSPGGLQKRHARVTVKYDRRELQRRLDVEKWIDGRLEELYRGMEADMPDEINIDELLELESEEERSRKIQGLLKSCGKPVEDFIQELLAKLQGLHRQPGLRQPSPSHDGSLSPLQDRARTAHP | soluble
2 | MAVDWPRGGLMPRLRRLEDLLPHIREGRYRLGPHAAKHMLQEGFREQDILSALLWGRELAIYPEDERMLVLGYMVFPPRLRLPLHVVLEYSTPRHVDIVTAFIPREPYRVYSRARLAALLRFDGALEEVRWTGPKHLYPPWD | soluble
3 | MGSDKIHHHHHHKKAVINDSNTPLHLLQPAYQGTYGDLTPEQVKKDIDRVFAYIDKETPARVVDKNTGKVITDYTAMGDEAQLERGAFRLASYEWGVTYSALIAAAETTGDKRYTDYVQNRFRFLAEVAPHFKRVYEEKGKTDSQLLQILTPHALDDAGAVCTAMIKLRLKDESLPVDGLIQNYFDFIINKEYRLADGTFARNRPQRNTLWLDDMFMGIPAVAQMSRYDKEAKNKYLAEAVKQFLQFADRMFIPEKGLYRHGWVESSTDHPAFCWARANGWALLTACELLDVLPEDYPQRPKVMDYFRAHVRGVTALQSGEGFWHQLLDCNDSYLETSATAIYVYCLAHAINKGWIDAIAYGPVAQLGWHAVAGKINEEGQVEGTCVGTGMAFDPAFYYYRPVNVYAAHGYGPVLWAGAEMIRLLNTQHPQMNDSAVQYYQEKQKTTAPIFAVDSE | not soluble
4 | MAEKALATLKELAFLEDPSPVERDAAIQRFEYTFEAFWKALQAYLREKEGLEGASPKGVIRLAREVGLLRDEEARLALGMVDDRSLTVHTYNEPLARAIFRRLPDYARLMEQVLGRLRR | soluble
5 | MSLIRDMQLSRFSIPFAAPIRVGGQELNKRDGLLVAVRDDQGHTGWGEAAPLPGLDTISLDQCQGELCPIRKAFADQALNWDSFSLTAPMMGLCPEIPGLNPISAFGVESALAWLGLCSGQWGIAGADELGIAVNGLFVPSPDPDRLPAQAKQLKASGFSTVKIKIGRMDSDDEIRQILELDSLFNHKLALRLDANRSLDFAQYQSYFEALKHLNIEYVEEPLKPEYDFFEAAQIPWPLALDESLESYANLDEPFPKSLGAVILKPGSFQGVHGMAQAMEHLHTQGIKTVLSSSFNNTMGMSMLGLLANLYAPETAHGLDTLKYFQPSDLSLGLSIAKGRMAIPVDLFGGGLNLASGLMEEIAEGHHHHHH | soluble
6 | MHHHHHHSSGVDLGTENLYFQSMATGQKLMRAVRVFEFGGPEVLKLRSDIAVPIPKDHQVLIKVHACGVNPVETYIRSGTYSRKPLLPYTPGSDVAGVIEAVGDNASAFKKGDRVFTSSTISGGYAEYALAADHTVYKLPEKLDFKQGAAIGIPYFTAYRALIHSACVKAGESVLVHGASGGVGLAACQIARAYGLKILGTAGTEEGQKIVLQNGAHEVFNHREVNYIDKIKKYVGEKGIDIIIEMLANVNLSKDLSLLSHGGRVIVVGSRGTIEINPRDTMAKESSIIGVTLFSSTKEEFQQYAAALQAGMEIGWLKPVIGSQYPLEKVAEAHENIIHGSGATGKMILLL | soluble
7 | TVEAKNETFAPQHPDQYLSWKATSEQSERVDALAEDPRLVILWAGYPFSRDYNKPRGHAFAVTDVRETLRTGAPKNAEDGPLPMACWSCKSPDVARLIQKDGEDGYFHGKWARGGPEIVNNLGCADCHNTASPEFAKGKPELTLSRPYAARAMEAIGKPFEKAGRFDQQSMVCGQCHVEYYFDGKNKAVKFPWDDGMKVENMEQYYDKIAFSDWTNSLSKTPMLKAEHPEYETWTAGIHGKNNVTCIDCHMPKVQNAEGKLYTDHKIGNPFDNFAQTCANCHTQDKAALQKVVAERKQSINDLKIKVEDQLVHAHFEAKAALDAGATEAEMKPIQDDIRHAQWRWDLAIASHGIHMHAPEEGLRMLGTAMDKAADARTKLARLLATKGITHEIQIPDISTKEKAQQAIGLNMEQIKAEKQDFIKTVIPQWEEQARKNGLLS | soluble
8 | MAGGEDRGDGEPVSVVTVRVQYLEDTDPFASANFPEPRRAPTCSLDGALPLGAQIPAVHRLLGAPLKLEDSALQVSPSGYYLDTELSLEEQREMLEGFYEEISKGRKPTLILRTQLSVRVNAILEKLYSSSGPELRRSLFSLKQIFQEDKDLVPEFVHSEGLSCLIRVGAAADHNYQSYILRALGQLMLFVDGMLGVVAHSDTIQWLYTLCASLSRLVVKTALKLLLVFVEYSENNAPLFIRAVNSVASTTGAPPWANLVSILEEKNGADPELLVYTVTLINKTLAALPDQDSFYDVTDALEQQGMEALVQRHLGTAGTDVDLRTQLVLYENALKLEDG | soluble
9 | MGSDKIHHHHHHMSAYPPLNSLRIFEAAARLESFSAAAGELFVTHGAVSKQIKQLEDWLGVQLFERSGGRVRLTDAGWRYLVQVQDGLDLIANATSQLLQPNRQRRLTINSTPTFAAFWLLPRLAGFRSQLPELELHLVTSDRDLSRLDAPFDVAIRRGPGDWPGHIAKPFLKEWELPLCSPALLSRQPLAQAADLTQHTLLHADTRPTAWPRWLTLAGAPELKPACSLHFDKFSLALQAAVDGLGVVLGPLPMAHELIAAGKLVSPLPGPVVTVRDYCWVVPRMSAEDATVATFCRWLEGEAEKAGLSGVESG | not soluble
10 | MRMDLSRIRNFSIIAHVDHGKSTLADRILELTHAVSDREMREQFLDSLELERERGITIKASAVRVTYRAKDGEEYVFHLIDTPGHVDFTYEVSRALAAVEGVLLVVDASQGVEAETLAKFYMALEHGHVIIPVINKIDLPNARPLEVALEVEEVLGLPADEAIFASGKTGEGVEEILEAIVQRIPPPKGDPEAPLKALIFDSVYDAYQGVIPYLRLFEGRVRPGDRIRIYSTGKEFTVDKVGVFTPQGLVATEALEAGEVGWLVAAIRDIHDVQVGDTITLADRPTPSPYPGFRPAKPVVFAGLYPVDSGDYGKLRDALEKLKLNDAALTFEPESSTALGFGFRCGFLGLLHAEIVQERLEREFGLSLIATAPSVVYKVRLKSGEEVEVHNPADLPDPTRIEEILEPYVKLTIFTPEEYVGSLMQLLQEKRGRLVNMNYLPGAQKRVELVYEAPFAEILYDFHDRLKSVSRGYASMDYEQAGYRPGDLVKVNVLVHGEVVDALTFIAHREKAYTMARAIVDKLAEVIPRQLFEVPIQAAIGGKIIARATVKALRKDVLAKCYGGDVTRKKKLLEKQKEGKKRLKAIGKVEVPQEAFLAVLSAGRDEPKG | soluble
11 | MSLTDAETAVMPDRTNTSRDHAKRYVRHFLADFAKLDQEYPRTYPRMIVRGEGAYVIDEEGRRILDAGSHLGACQIGHGHPEVADRIHQQVRNIEFIALDAGISHVYAAALGERLAKMVLCDDPVFSFTNSGSESNELAFKIARQYHRRRGQPGRVKIFSRNGSYHGSTLATSAATGAAPFKEGFGPLPEGFIQGAQPSPGRCGHCGFNDACSLACLDDFERLIMAEGSETVAAVIAEPIAIPQAVKVPPPDYFVRLRKFCDDHGILLIIDEVVCGFGRTGRMFGAEHFGVHGDIVTFAKGLTSGYVPMGAVAVARHVEEVFKNAPLLHLNTYAGHPVACAAAMAVLDIMERERLVLHSARMEPILRRELQRLQNAVARVRYLSVIGLLSSVIVDISDRPDPDAVIRRVRNIAYDNGLLARVARDGALLSVHFYPPLVVAEQDIVAGVRALEIALRMIEGHHHHHH | not soluble
12 | GLPARSSSISNTNRTGENPMITPIISSNLGLKHRVTLRKATLASLMQSLSGESSNRVMWNDRYDTLLIARDPREIKNAIEKSVTDFGGLENYKELTGGADPFALMTPVCGLSANNIFKLMTEKDVPIDPTSIEYLENTSFAEHVNTLDSHKNYVVIVNDGRLGHKFLIDLPALTQGPRTAYIIQSDLGGGALPAVRVEDWISRRGSDPVSLDELNQLLSKDFSKMPDDVQTRLLASILQIDKDPHKVDIKKLHLDGKLRFASHEYDFRQFQRNAQYVAGLG | soluble
13 | MGHHHHHHSHMSLSSSACPLLLTLRDHLLQLEQQLCFSLFKIFWQMLVEKLDVYIYQEIILANHFNEGGAAQLQFDMTRNLFPLFSHYCKRPENYFKHIKEACIVLNLNVGSALLLKDVLQSASGQLPATAALNEVGIYKLAQQDVEILLNLRTNWPNTGK | not soluble
